In patent US20030158389A1:
Like-named read-outs stand apart in the source and are kept apart here. One block for each substance: values may come before it.

Assays:
[1] = target: human C1q (Quidel, San Diego, Calif.) (human) (UniProt P02745); assay: C1q binding ELISA, antibody coated on plate, 2 µg/ml C1q
[2] = target: human C1q (Quidel, San Diego, Calif.) (human) (UniProt P02745); assay: as above; remark: listed apart in the source
[3] = target: CD20 antigen on WIL2-S cells (UniProt P11836); assay: flow cytometry on WIL2-S cells expressing CD20
[4] = target: human C1q (Quidel, San Diego, Calif.) (human) (UniProt P02745); assay: cell-based or functional assay

Chain of human C1q (Quidel, San Diego, Calif.) (human) (P02745 23-245 limits assumed, chain 1 of 3): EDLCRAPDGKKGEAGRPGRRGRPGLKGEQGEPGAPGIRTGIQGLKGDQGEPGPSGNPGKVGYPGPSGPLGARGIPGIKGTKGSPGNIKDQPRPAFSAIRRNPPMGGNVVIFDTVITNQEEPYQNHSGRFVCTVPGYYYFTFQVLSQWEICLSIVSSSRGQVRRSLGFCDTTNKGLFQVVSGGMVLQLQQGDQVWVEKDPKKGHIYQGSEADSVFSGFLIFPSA
Chain of human C1q (Quidel, San Diego, Calif.) (human) (P02746 28-253 limits assumed, chain 2 of 3, further chain): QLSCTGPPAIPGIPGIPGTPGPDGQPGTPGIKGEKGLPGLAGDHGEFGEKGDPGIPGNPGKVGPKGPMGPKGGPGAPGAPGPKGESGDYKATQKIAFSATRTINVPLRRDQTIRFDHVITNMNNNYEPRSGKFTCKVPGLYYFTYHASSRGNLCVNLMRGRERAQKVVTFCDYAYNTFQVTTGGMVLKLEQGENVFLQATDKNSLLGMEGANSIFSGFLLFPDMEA
Chain of human C1q (Quidel, San Diego, Calif.) (human) (P02747 29-245 limits assumed, chain 3 of 3, further chain): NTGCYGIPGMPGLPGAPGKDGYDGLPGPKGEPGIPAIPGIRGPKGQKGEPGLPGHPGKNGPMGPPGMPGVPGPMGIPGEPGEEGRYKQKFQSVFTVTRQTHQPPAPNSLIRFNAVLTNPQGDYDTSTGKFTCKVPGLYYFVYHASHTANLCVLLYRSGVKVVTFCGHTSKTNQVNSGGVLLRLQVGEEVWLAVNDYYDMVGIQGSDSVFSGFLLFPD
Chain of CD20 antigen on WIL2-S cells (P11836 whole entry): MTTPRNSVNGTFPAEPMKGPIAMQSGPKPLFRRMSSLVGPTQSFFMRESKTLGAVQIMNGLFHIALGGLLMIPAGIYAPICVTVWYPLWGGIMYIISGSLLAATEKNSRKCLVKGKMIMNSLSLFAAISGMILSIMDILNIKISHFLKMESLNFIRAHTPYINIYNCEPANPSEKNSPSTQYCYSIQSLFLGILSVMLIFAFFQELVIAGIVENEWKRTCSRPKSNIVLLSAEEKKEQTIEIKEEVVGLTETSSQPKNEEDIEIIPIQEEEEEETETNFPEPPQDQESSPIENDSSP

EC50 [1]: 1.07 µg/mL | percent increase in binding against wild type [1]: > 30%
Substance: C2B8 mutant K334A (antibody)

fold increase in binding against wild type [2]: > 2 fold | EC50 [1]: 1.08 µg/mL
Substance: C2B8 mutant K326E (antibody)

EC50 [1]: 0.81 µg/mL | fold increase in binding against wild type [1]: 2 fold
Substance: C2B8 mutant E333S (antibody)

EC50 as percentage of the wild type [3]: 112%
Substance: C2B8 mutant P329A (antibody)

EC50 [1]: 1.18 µg/mL
Substance: C2B8 mutant E333V (antibody)

EC50 [1]: 1.14 µg/mL
Substance: C2B8 mutant E333G (antibody)

fold increase in binding against wild type [2]: > 2 fold | EC50 [1]: 0.76 µg/mL
Substance: C2B8 mutant K326D (antibody)

EC50 as percentage of the wild type [3]: 103% | fold lower binding than wild type C2B8 [1]: 60 fold
Substance: C2B8 mutant P331A (antibody)

percent increase in binding against wild type [1]: 50%
Substance: C2B8 mutant with A327 in the human IgG1 constant region changed to glycine (antibody)

CDC, fold better than wild type C2B8 [4]: > 2 fold | fold better binding than wild type C2B8 [1]: > 3 fold
Substance: C2B8 double mutant K326A-E333A (antibody)

EC50 [1]: 0.95 µg/mL
Substance: C2B8 mutant K326G (antibody)

fold increase in binding against wild type [2]: > 2 fold | EC50 [1]: 0.67 µg/mL
Substance: C2B8 mutant K326M (antibody)

EC50 [1]: 1.03 µg/mL | percent increase in binding against wild type [1]: 30%
Substance: C2B8 mutant K326A (antibody)

EC50 [1]: 0.98 µg/mL | percent increase in binding against wild type [1]: 30%
Substance: C2B8 mutant E333A (antibody)

EC50 [1]: 1.52 µg/mL
Substance: C2B8 mutant E333Q (antibody)

EC50 as percentage of the wild type [3]: 89% | CDC, percentage of the wild type [4]: 108% | percent decrease in binding against wild type C2B8 [1]: 30%
Substance: C2B8 mutant E318A (antibody)

CDC, fold better than wild type C2B8 [4]: > 2 fold | fold better binding than wild type C2B8 [1]: > 3 fold
Substance: C2B8 double mutant K326M-E333S (antibody)

fold increase in binding against wild type [2]: > 2 fold | EC50 [1]: 0.47 µg/mL | fold increase in binding against wild type [1]: 5 fold
Substance: C2B8 mutant K326W (antibody)

EC50 as percentage of the wild type [3]: 102% | CDC, percentage of the wild type [4]: 108%
Substance: C2B8 mutant K320A (antibody)

EC50 [1]: 1.3 µg/mL
Substance: C2B8 mutant K326V (antibody)

EC50 [1]: 1.22 µg/mL
Substance: C2B8 mutant E333D (antibody)
